FireProtDB (doi:10.1093/protein/12.7.581)
Values joined by “and” are separate entries in the source; they are usually repeats but may differ in a detail not shown here. Equal entries are not always repeated.

Conditions: Bos taurus; pH 7.4; Thermal; CD; Tris-HCl 20 mM; CaCl2 1 mM; reversible: yes(>95%); whole UniProt chain shown

B1: Alpha-lactalbumin wild type, P00711 (protein)
chain: MMSFVSLLLVGILFHATQAEQLTKCEVFRELKDLKGYGGVSLPEWVCTTFHTSGYDTQAIVQNNDSTEYGLFQINNKIWCKDDQNPHSSNICNISCDKFLDDDLTDDIMCVKKILDKVGINYWLAHKALCSEKLDQWLCEKL
- unfolding enthalpy (van 't Hoff): 64.5 kcal/mol and 73.8 kcal/mol and 73.4 kcal/mol
